The target in this test is T1, Biotinylated Tir-10_v2 (Biotin-Ahx-EHI-pY-DEVAAD).
T1 chain: EHIYDEVAAD
In words: SPR; Biacore T100, 25 °C, Series S SA chip, about 15 RUs of biotinylated peptide captured; 10 mM HEPES pH 7.4, 150 mM NaCl, 3 mM EDTA, 0.05% P20, 0.1 mg/mL BSA; analytes 60 nM free SH2, 10 nM tcTRP24_(8)SS-SH2_(2), 10 nM tcTRP24_(8)SS; 50 μL/minute.

B1: free SH2 domain derived from the Nck adapter protein, P16333 282-376 (domain or fragment)
chain: WYYGKVTRHQAEMALNERGHEGDFLIRDSESSPNDFSVSLKAQGKNKHFKVQLKETVYCIGQRKFSTMEELVEHYKKAPIFTSEQGEKLYLVKHL
modifications: not checked
For B1, the maximum binding response was determined as 125 RUs.

B2: tcTRP24_(8)SS-SH2_(2) (trimeric tcTRP24 particle with two Nck SH2 domains in each subunit, six in all), P16333 282-376; P16333 282-376 (protein)
chain: SELAARCLIILFQQLVELARLAIESGDEELLRRVSEWLEEVIKDMRRVVEQALREGNSELAARILIILFQQLVELARLAIESGDEELLRRVSEWLEEVIKDMRRVVEQALREGNWYYGKVTRHQAEMALNERGHEGDFLIRDSESSPNDFSVSLKAQGKNKHFKVQLKETVYCIGQRKFSTMEELVEHYKKAPIFTSEQGEKLYLVKHLSELAARILIILFQQLVELARLAIESGDEELLRRVSEWLEEVIKDMRRVVEQALREGNSELAARILIILFQQLVELARLAIESGDEELLRRVSEWLEEVIKDMRRVVEQALREGNSELAARILIILFQQLVELARLAIESGDEELLRRVSEWLEEVIKDMRRVVEQALREGNSELAARILIILFQQLVELARLAIESGDEELLRRVSEWLEEVIKDMRRVVEQALREGNWYYGKVTRHQAEMALNERGHEGDFLIRDSESSPNDFSVSLKAQGKNKHFKVQLKETVYCIGQRKFSTMEELVEHYKKAPIFTSEQGEKLYLVKHLSELAARILIILFQQLVELARLAIESGDEELLRRVSEWLEEVIKDMRRVVEQALREGNSELACRILIILFQQLVELARLAIESGDEELLRRVSEWLEEVIKDMRRVVEQALREGN
modifications: not checked
The molecule B2 gave a maximum binding response of 123 RUs.

The record behind these values is paper PMC8556268.
